This note sets out measurements from patent US20190202901A1 (PIERRE FABRE MEDICAMENT, published 2019).

A word on the Kd: it is the equilibrium constant for the complex coming apart. Usually EC50 stands for the concentration at which the effect is half-maximal.

Assay [1] has as its target T1, human IGF-1R, native, on cells (MCF-7, hIGF-1R transfected cells, tumor sections, primary normal cells) (human, UniProt P08069 31-1367). The experiment in a line: cell-based or functional assay.
Assay [2] deals with T1, human IGF-1R, native, on cells (MCF-7, …). The experiment in a line: cell-based or functional assay. The source holds these as a separate data set.
Assay [3] addresses T2, monkey IGF-1R on COS-7 cells (monkey (African green monkey)). Put plainly: cell-based or functional assay.
Assay [4] concerns the target T1, human IGF-1R, native, on cells (MCF-7, …). Put plainly: cell-based or functional assay. The source holds these as a separate data set.
For assay [5], the target named is T3, soluble recombinant human IGF-1R hetero-tetramer with C-terminal 10-His tag (R&D Systems 305-GR-50) (human, UniProt P08069 31-736; P08069 741-932).
T3 construct: domain: alpha chain;domain: extracellular domain of the beta chain; Captured on an anti-His antibody chip; also called recombinant soluble human-IGF-1R; h-IGF-1R
Put plainly: SPR Biacore X100, Ln(2)/koff. How it is done:
(§1) The dissociation constants (KD) of the binding of the antibodies on a recombinant soluble human-IGF-1R were defined by the ratio between the dissociation rate (koff) and the association rate (kₒₙ). The kinetic experiments were run on a Biacore X100 device using a CM5 sensor chip activated by a mouse anti-Tag His monoclobnal antibody. Around 12000 RU of antibodies are chemically grafted on the carboxymethyldextan matrix using the amine kit chemistry.
(§2) The experiments were carried out at 25° C. with a flow rate of 30 μl/min using the HBS-EP+ buffer (GE Healthcare) as the running and sample dilution buffer.
The single cycle kinetic scheme was used to define the kinetic parameters of the binding of the anti-IGF-1R antibodies on a soluble recombinant human IGF-1R captured by its two C-terminal 10 Histidine-tag. [0637] 1—A solution of a soluble recombinant version of the human IGF-1R hetero-tetramere: 2a chains and the extracellular domains of 2β chains expressed with an additional C-terminal 10-His tag (R&D Systems catalogue number 305-GR-50) was injected during one minute on the second flowcell at a concentration of 10 μg/ml. […] [0638] 2—After the capture phase, either the running buffer was injected 5 times (90 s each injection) or a growing range of 5 concentrations of one of the six antibodies was injected (90 s each injection) on both flowcells. […]
A general note: In SPR one partner is held on a chip, and binding of the other changes the refractive index at the surface.

Assay [6] has as its target T3, soluble recombinant human IGF-1R …. Put plainly: SPR Biacore X100, His-captured recombinant human IGF-1R. How it is done:
(§3) The recognition experiments were run on a Biacore X100 device using a CM5 sensor chip activated by an anti-Tag His antibody (His capture kit GE Healthcare catalogue number 28-9950-56). More than 11000 RU of antibodies are chemically grafted on the carboxymethyldextan matrix using the amine kit chemistry. The experiments were carried out at 25° C. with a flow rate of 30 μl/min using the HBS-EP buffer (GE Healthcare) as the running and sample dilution buffer.
(§4) A solution of a soluble recombinant version of the IGF-1R hetero-tetramere composed of 2a chains and the extracellular domains of 2β chains expressed with an additional C-terminal 10-His tag, based either on the sequence of the human (R&D Systems catalogue number 305-GR-50) or of the one of cynomolgus (produced in house) was injected 1 minute on the second flowcell at a dilution defined to capture around 160 RU of antigen. […] At the end of the fifth injection the running buffer was passed in order to define the dissociation rate.
(§5) The resulting sensorgrams were analysed using the Biaevaluation software with a 1:1 model. […] The quality of the fitting was assessed by a Chi2/Rmax ratio lower than 0.05 RU.

In assay [7] the target is T4, soluble recombinant cynomolgus IGF-1R hetero-tetramer with C-terminal 10-His tag (produced in house) (cynomolgus monkey).
T4 construct: domain: alpha chain;domain: extracellular domain of the beta chain; Produced in house; also called Macaca IGF-1R; soluble monkey IGF-1R ECD
Put plainly: SPR Biacore X100, His-captured recombinant cynomolgus IGF-1R. As to the method: as §3, §4, §5

Assay [8] addresses T3, soluble recombinant human IGF-1R …. Put plainly: SPR Biacore X100, His-captured soluble h-IGF-1R (about 600 RU), mean of 4 experiments. As to the method:
as §1, §2
The single cycle kinetic scheme was used to define the kinetic parameters of the binding of the anti-IGF-1R antibodies on a soluble recombinant human IGF-1R captured by its two C-terminal 10 Histidine-tag. [0637] 1—A solution of a soluble recombinant version of the human IGF-1R hetero-tetramere: 2a chains and the extracellular domains of 2β chains expressed with an additional C-terminal 10-His tag (R&D Systems catalogue number 305-GR-50) was injected during one minute on the second flowcell at a concentration of 10 μg/ml. […] [0638] 2—After the capture phase, either the running buffer was injected 5 times (90 s each injection) or a growing range of 5 concentrations of one of the six antibodies was injected (90 s each injection) on both flowcells. At the end of the fifth injection the running buffer was passed during 5 minutes in order to define the dissociation rate. [0639] 3—The surface was then generated with an injection of a 10 mM Glycine, HCl pH 1.5 buffer during 45 s.

Assay [9] shares this target. The experiment in a line: SPR Biacore X100, single cycle kinetics, His-captured human IGF-1R (about 160 RU), 1:1 model. How it is done: as §3, §4, §5
In assay [10] the target is T2, monkey IGF-1R on COS-7 cells. The experiment in a line: FACS titration on Cos-7 cells. As to the method: (§6) The binding properties of the humanized variants were evaluated by FACS analyses on the human MCF-7 breast adenocarcinoma cell line and the monkey cell line Cos-7 using increasing antibody concentrations. For that purpose, cells (1×10⁶ cells/ml) were incubated with anti-IGF-1R antibodies for 20 min. at 4° C. in FACS buffer (PBS, 0.1% BSA, 0.01% NaN3). They were then washed 3 times and incubated with the appropriate secondary antibody coupled with Alexa 488 for 20 additional minutes at 4° C. in the dark before being washed 3 times in FACS buffer. The binding of anti-IGF-1R antibodies was immediately performed on viable cells which were identified using propidium iodide (that stains dead cells). The EC₅₀ of binding expressed in molarity (M) was calculated using a nonlinear regression analysis (GraphPad Prims 4.0).

In assay [11] the target is T1, human IGF-1R, native, on cells (MCF-7, …). The experiment in a line: FACS titration on MCF-7 cells. As to the method:
as §6

For assay [12] the target is unchanged. Put plainly: FACS titration on MCF-7 cells, 4 C, secondary antibody, MFI; EC50 table inside the plot.
The target in assay [13] is T2, monkey IGF-1R on COS-7 cells. Put plainly: FACS titration on COS-7 cells, 4 C, secondary antibody, MFI; EC50 table inside the plot.
Assay [14] concerns the target T5, human insulin receptor on cells (IM9 cells, hIR+ transfected cell line) (human, UniProt P06213 28-1382).
T5 construct: whole, on cells; also called human IR
Put plainly: FACS titration on NIH 3T3 IR+ cells (human insulin receptor transfected), 4 C, secondary antibody, MFI.

Like-named read-outs stand apart in the source and are kept apart here. Some results are limits rather than exact numbers.

B1: c208F2 (antibody, human IgG1, kappa, V domains shown)
VH: QVQLQQSGPELVKPGASVKMSCKASGYTFTSYYIYWVKQRPGQGLEWLGWIWPGDGSTKYNEKFKDKTTLTADKSSNTAYMFLSSLTSEDSAVYFCASPMITPNYAMDYWGQGASVTVSS
VL: DIQMTQTTSSLSASLGDRVTISCRASQDISKYLNWYQQQPDGTIKLLIYYTSRLHSGVPSRFSGRGSGTDYSLTISNVEQEDIATYFCQQGSTLPYTFGGGTKLEIKR
notes: also called chimeric 208F2; chimeric form of the 208F2 second IGF-1R antibody
For the molecule B1, in assay [1], the “phosphorylation of hIGF-1R, % of phosphorylation induced by IGF-1 (MCF-7 cells, 10 µg/ml)” value was less than 10%. Besides, the entries for the “ΔMFI (MCF-7, 10 µg/ml, 4 h)” value in assay [2] and in [4] were 288 MFI and 278 MFI, respectively. For the same molecule, the “% internalisation (monkey IGF-1R)” value in assay [3] came to 67%. Also, in assay [3], the “ΔMFI (monkey IGF-1R internalization)” value is 52 MFI. For the same molecule, the “% internalization (MCF-7, 10 µg/ml, 4 h)” value in assay [4] worked out at 82%. In addition, the “half-life of the complex” value in [5] was in the range of 2 to 3 h. The dissociation constant Kd is roughly 0.2 nM in [6], roughly 0.2 nM in [7], roughly 0.075 nM in [8] and 0.23 nM in [9].

B2: hz208F2 H026/L024 (antibody, human IgG1, kappa, V domains shown)
VH: QVQLVQSGAEVKKPGASVKMSCKASGYTFTSYYIYWVKQAPGQGLEWLGWIWPGDGSTKYNEKFQGRVTLTADKSSNTAYMFLSSLRSEDTAVYFCASPMITPNYAMDYWGQGTLVTVSS
VL: DIQMTQSPSSLSASVGDRVTISCRASQDISKYLNWYQQKPGKAPKLLIYYTSRLHSGVPSRFSGRGSGTDYSLTISNLQPEDFATYFCQQGSTLPYTFGGGTKVEIKR
notes: also called hz208F2 VH3/VL3; hz208F2 VH3VL3
For B2, in [4], the “% internalization (MCF-7, 10 µg/ml, 4 h)” value stood at 87%. Also, in assay [4], the “ΔMFI (MCF-7, 10 µg/ml, 4 h)” value worked out at 344 MFI. Also, in assay [5], the “half-life of the complex” value lay within 2 to 3 h. For the same molecule, the EC50 in assay [10] amounted to 0.51 nM; in assay [11], 0.709 nM; in assay [12], 0.71 nM; in assay [13], 0.511 nM. Besides, in [8], the Kd was roughly 0.06 nM. Moreover, the binding result in assay [14] is “no binding (tested: log [M] about -7.2 (about 6e-8 M))”.
